Data as given in paper PMC314469, “Protein Interaction Networks by Proteome Peptide Scanning” (PLoS Biology, 2004).

What was measured:
[1] = target: endophilin SH3 (SH3G2_HUMAN), Q99962; assay: SPOT array
[2] = target: T1, amphyphisin SH3 (AMPH_HUMAN), P49418; assay: SPOT array
T1 chain: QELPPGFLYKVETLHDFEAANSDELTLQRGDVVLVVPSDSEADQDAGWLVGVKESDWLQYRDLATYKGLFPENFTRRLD

RLFSIVRPRRLLYM [Q9UL53 87-100] gave a normalised SPOT signal, Boehringer light units (BLU); mean over the file's lines of this peptide [1] of 702 and a normalised SPOT signal, Boehringer light units (BLU); mean over the file's lines of this peptide [2] of 1390.

For RLGPPKRPPRKLGP [O15235 37-51], the normalised SPOT signal, Boehringer light units (BLU); mean over the file's lines of this peptide [1] was 10500 and the normalised SPOT signal, Boehringer light units (BLU); mean over the file's lines of this peptide [2] was 17100.

Work on RLHRLRRPHSSSDA [Q9NT23 226-239] yielded a normalised SPOT signal, Boehringer light units (BLU); mean over the file's lines of this peptide [1] of 9.6 and a normalised SPOT signal, Boehringer light units (BLU); mean over the file's lines of this peptide [2] of 12.5.

In the case of AVAPPARPPRPPYP [AAH27972 515-529], the normalised SPOT signal, Boehringer light units (BLU); mean over the file's lines of this peptide [1] is reported as 9580 and the normalised SPOT signal, Boehringer light units (BLU); mean over the file's lines of this peptide [2] is reported as 4180.

For RLIAISRPLRYVTV [P58180 122-135], the normalised SPOT signal, Boehringer light units (BLU); mean over the file's lines of this peptide [1] was 658 and the normalised SPOT signal, Boehringer light units (BLU); mean over the file's lines of this peptide [2] was 4460.

For RLIAPRRPWTLSHV [Q96M18 45-58], the normalised SPOT signal, Boehringer light units (BLU); mean over the file's lines of this peptide [1] was 2240 and the normalised SPOT signal, Boehringer light units (BLU); mean over the file's lines of this peptide [2] was 1130.

For RLKTLRRPRVRDRL [Q9NRC6 2111-2124], the normalised SPOT signal, Boehringer light units (BLU); mean over the file's lines of this peptide [1] was 32.1 and the normalised SPOT signal, Boehringer light units (BLU); mean over the file's lines of this peptide [2] was 35.2.

In the case of RLLPPQRPGKSQRV [Q9UJS3 337-350], the normalised SPOT signal, Boehringer light units (BLU); mean over the file's lines of this peptide [1] is reported as 25000 and the normalised SPOT signal, Boehringer light units (BLU); mean over the file's lines of this peptide [2] is reported as 2730.

RLNWLGRPSKVLSL [O00407 179-192] gave a normalised SPOT signal, Boehringer light units (BLU); mean over the file's lines of this peptide [1] of 270 and a normalised SPOT signal, Boehringer light units (BLU); mean over the file's lines of this peptide [2] of 213.

In the case of RLPELKRPSGDQVQ [Q07075 143-156], the normalised SPOT signal, Boehringer light units (BLU); mean over the file's lines of this peptide [1] is reported as 34.9 and the normalised SPOT signal, Boehringer light units (BLU); mean over the file's lines of this peptide [2] is reported as 37.2.

Binder RLRHLRRPRVARLL [Q9H1C0 128-141] has a normalised SPOT signal, Boehringer light units (BLU); mean over the file's lines of this peptide [1] of 24.3 and a normalised SPOT signal, Boehringer light units (BLU); mean over the file's lines of this peptide [2] of 15.2.

In the case of RLRLPPKPPPPLQP [Q14296 184-198], the normalised SPOT signal, Boehringer light units (BLU); mean over the file's lines of this peptide [1] is reported as 6030 and the normalised SPOT signal, Boehringer light units (BLU); mean over the file's lines of this peptide [2] is reported as 896.

With RLTSPLRPPEGVRL [O75467 160-174] the normalised SPOT signal, Boehringer light units (BLU); mean over the file's lines of this peptide [1] was 1040 and the normalised SPOT signal, Boehringer light units (BLU); mean over the file's lines of this peptide [2] was 235.

RLYSIHRPSKQSLN [P55001 106-119] was tested, and the normalised SPOT signal, Boehringer light units (BLU); mean over the file's lines of this peptide [1] was 290 and the normalised SPOT signal, Boehringer light units (BLU); mean over the file's lines of this peptide [2] was 37.2.

For AVAVPRRPRAGAER [O94839 5-18], the normalised SPOT signal, Boehringer light units (BLU); mean over the file's lines of this peptide [1] was 256 and the normalised SPOT signal, Boehringer light units (BLU); mean over the file's lines of this peptide [2] was 106.

RMKRPFRPPPAHFQ [P58012 147-161] was tested, and the normalised SPOT signal, Boehringer light units (BLU); mean over the file's lines of this peptide [1] was 5130 and the normalised SPOT signal, Boehringer light units (BLU); mean over the file's lines of this peptide [2] was 554.

In the case of RMLVPGRPVKDATP [O94938 456-469], the normalised SPOT signal, Boehringer light units (BLU); mean over the file's lines of this peptide [1] is reported as 2930 and the normalised SPOT signal, Boehringer light units (BLU); mean over the file's lines of this peptide [2] is reported as 352.

In the case of RNPVLRRPPILEDY [Q96S08 361-374], the normalised SPOT signal, Boehringer light units (BLU); mean over the file's lines of this peptide [1] is reported as 15.8 and the normalised SPOT signal, Boehringer light units (BLU); mean over the file's lines of this peptide [2] is reported as 29.1.

RPAKPHKPPGSMGL [O60292 677-691] showed a normalised SPOT signal, Boehringer light units (BLU); mean over the file's lines of this peptide [1] of 5260 and a normalised SPOT signal, Boehringer light units (BLU); mean over the file's lines of this peptide [2] of 163.

With RPALPGRPPQVAEQ [BAC05290 145-159] the normalised SPOT signal, Boehringer light units (BLU); mean over the file's lines of this peptide [1] was 501 and the normalised SPOT signal, Boehringer light units (BLU); mean over the file's lines of this peptide [2] was 54.8.

For RPALPGRPPRWLNR [Q8TDZ8 103-117], the normalised SPOT signal, Boehringer light units (BLU); mean over the file's lines of this peptide [1] was 13400 and the normalised SPOT signal, Boehringer light units (BLU); mean over the file's lines of this peptide [2] was 16100.

Work on RPAPPQRPPPPSGA [O43426 1118-1132] yielded a normalised SPOT signal, Boehringer light units (BLU); mean over the file's lines of this peptide [1] of 12200 and a normalised SPOT signal, Boehringer light units (BLU); mean over the file's lines of this peptide [2] of 1990.

Binder RPAVLPRPEKPQLP [P78314 398-411] has a normalised SPOT signal, Boehringer light units (BLU); mean over the file's lines of this peptide [1] of 213 and a normalised SPOT signal, Boehringer light units (BLU); mean over the file's lines of this peptide [2] of 197.

RPEDPTRPSRFQQQ [O15067 285-298] was tested, and the normalised SPOT signal, Boehringer light units (BLU); mean over the file's lines of this peptide [1] was 149 and the normalised SPOT signal, Boehringer light units (BLU); mean over the file's lines of this peptide [2] was 1830.

RPHAPGRPARGKVQ [Q16439 323-336] was tested, and the normalised SPOT signal, Boehringer light units (BLU); mean over the file's lines of this peptide [1] was 1270 and the normalised SPOT signal, Boehringer light units (BLU); mean over the file's lines of this peptide [2] was 3930.

Binder AVGPPKRPQPAALE [Q9ULK5 32-45] has a normalised SPOT signal, Boehringer light units (BLU); mean over the file's lines of this peptide [1] of 393 and a normalised SPOT signal, Boehringer light units (BLU); mean over the file's lines of this peptide [2] of 31.9.

Binder RPNPLRRPLNRKRA [Q96CZ1 23-36] has a normalised SPOT signal, Boehringer light units (BLU); mean over the file's lines of this peptide [1] of 200 and a normalised SPOT signal, Boehringer light units (BLU); mean over the file's lines of this peptide [2] of 156.

Work on RPPFLSRPARGLYS [Q16512 357-370] yielded a normalised SPOT signal, Boehringer light units (BLU); mean over the file's lines of this peptide [1] of 1450 and a normalised SPOT signal, Boehringer light units (BLU); mean over the file's lines of this peptide [2] of 774.

RPPGPRRPERGPRG [P08913 304-317] showed a normalised SPOT signal, Boehringer light units (BLU); mean over the file's lines of this peptide [1] of 4970 and a normalised SPOT signal, Boehringer light units (BLU); mean over the file's lines of this peptide [2] of 13300.

For RPPNLKRPEDYEAV [O75992 403-416], the normalised SPOT signal, Boehringer light units (BLU); mean over the file's lines of this peptide [1] was 67.7 and the normalised SPOT signal, Boehringer light units (BLU); mean over the file's lines of this peptide [2] was 12.

RPPPPAKPPPDEEE [Q92625 451-465] showed a normalised SPOT signal, Boehringer light units (BLU); mean over the file's lines of this peptide [1] of 89 and a normalised SPOT signal, Boehringer light units (BLU); mean over the file's lines of this peptide [2] of 32.4.
